# Assay results taken from the nanobody polyreactivity screen of Harvey et al. (2022).
# Experiment: yeast display, Sf9 membrane polyspecificity reagent, FACS + sequencing; frameworks hold sequencing errors
# Method in brief: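 A nanobody's polyreactivity label depends on the gate it was sorted from. Yeast display cells were stained with 10% biotinylated, detergent-solubilized Sf9 membrane reagent for 1 hour at 4 °C, enriched on streptavidin microbeads and sorted by FACS. The low and high (top ~1%) gates were set on anti-HA fluorescence for expression and streptavidin fluorescence for reagent binding.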
row,Sequence,polyreactivity (PSR sort gate)
1,QVQLVESGGGLVQAGGSLRSSCAASGYTFRYYAMGWSRQAPGKERELVAAITSSSNTTYADSVKGRFTISRDNEKNTVYLQMNSLKPDDTGVYYCNTPYFTGYYWGQGTQVTVSS,high polyreactivity
2,QVQLVESGGGLVQAGGSLRVSCAASGFIFCGYARGWYRQAPGKERELDAAISSSGGSTYYADSVKGRFTISRDNAKNTDYLQMNSLKPEDTAVYYCAKVGRSRRYYYWGQGTQVTVSS,high polyreactivity
3,QVQLVESGGGLVQAGGSLRVSCAASGFIFHYYAMGWYRQAPGKERELVAAITYSGGSTYYADSVKGRFTISRDNAKNTVYLQMNSMKPVDTAVYYCNADSVLDLYWNMDYWGQVTQVTVSS,low polyreactivity
4,QVQLVESGGGLVQAGGSLRVSCAASGFIFLNNAMGWYRQAPGKERELVAAITWSGGSTYYADSVKGRFTISRDNAKNTVYLQMKSLKPEDTAVYYCAADGWLYYGVGYWGQGTQVTVSS,low polyreactivity
5,QVQLVESGGGLVQAGGSLRVSCAASGFTFDQYAMGWYRQAPGKERELVAAISWSGASTYYADSVKGRFTISRDNAKNTDDLQMNSLKPEDTAVYYCAVSRRRIDYDYWGQGTQVTVSS,high polyreactivity
6,QVQLVESGGGLVQAGGSLRVSCAASGFTFRHNAMGWYRQAPGKERELVAVISSTGTYADSVKGRFTISRDNAKNTVYLQMNSLKPEDTAVYYCAAGSDYGGSYAYDYWGQGTQVTVSS,low polyreactivity
7,QVQLVESGGGLVQAGGSLRVSCAASGFTFTRYTMGWYRQAPGKEWELVAAITRSGGNTYYADSVKGRFTISRDNAKNTVYLQMNSLKPEDTAVYYCAARQVSGIGPYDYWGQGTQVTVSS,high polyreactivity
8,QVQLVESGGGLVQAGGSLRVSCAASGNIFVYNAMGWYRQAPGKERELVAAIDSGGSTYYADSVKGRFTISRDNAKNTVYLQMNSLKPEDTAVYYCAADYYSTYRTIYYYWGQGTQVTVSS,low polyreactivity
9,QVQLVESGGGLVQAGGSLRVSCAASGRIFRYTSGWYRQAPAKERELVATINSCGRTYYADSVKGRFTISRDNAKNTVYLQRNCLKPEDTAVYFCAAPYQTKCNKYVHGSPIENDYWGQGTQVTVSS,low polyreactivity
10,QVQLVESGGGLVQAGGSLRVSCAASGRTFSGYTMGWYRQAPGKERELVATIRDRGGSTYYADSVKGRFTISRDNAKNTVYLQMNSLTPEDTAVYYCAARRGRRYYYWGQATQVTVSS,high polyreactivity
11,QVQLVESGGGLVQAGGSLRVSCAASGRTFYANVRGWYRQAPGKERELGAAIAASGGSTYYADSVKGRVTISRDNAKNTVYLQMNRLKPEDTAGYYCYKVVRWPGTYLRYVISDLDYWGQGSQVTVSS,low polyreactivity
12,QVQLVESGGGLVQAGGSLRVSCAASGRTFYRKAMGWYRHAPGKERSLVAAISSGGSTTYADSVKGRFTISRDNAKNTVYLQMISLKPEDTAVYYCAARSHAGSVCPRLKEYDFWGQGTQVTVSS,low polyreactivity
13,QVQLVESGGGLVQAGGSLRVSCAASGSIFDVYTMGWYRQAPGKERELVAAISKRSGRTYYADSVKGRFTISRDNAKNTVYLQMNSLKPEDTAVYYCAKDFGYWGQGTQVTVSS,low polyreactivity
14,QVQLVESGGGLVQAGGSLRVSCAASGSIFPDNAMGWYRQAPGKERELVAAITRGGSTYYADSVKGRFTISRDNAKNTVYLQMNSLKPEDTAVYYCAARRRYLWSYDYWGQGTQVTVSS,high polyreactivity
15,QVQLVESGGGLVQAGGSLRVSCAASGSIFYQYAMGWYRQAPGKERELVAAISTTGGRTYYADSVKGRFTISRDNAKNTVYLQMNSLKPEDTAVYYCAAYKYYGYDYWGQGTQVTVSS,high polyreactivity
16,QVQLVESGGGLVQAGGSLRVSCAASGSTFASYAMGWSRQAAGKVWEFVAAICRSGGSTYYADSVKGRFTISRDNAKNTVSFQMNSREPEDPAVYYWAKSRYDYTIPEGGYWGQGTQATVSS,low polyreactivity

row,Sequence,polyreactivity (PSR sort gate)
1,QVQLVESGGGLVQAGGSLRVSCAASGYFFHYHAMGWYRHAPGKEREFVAAISQGGGSTYYADSVKGRFTISRDNAKKTVSLQMISLKPEDTAVYYCAADYRSGYREMDYWGQGTQVTVSS,low polyreactivity
2,QVQLVESGGGLVQAGGSLRVSCAPSGRTFSWYAMGWYRQAPGKEREFVAAIRWSGSSTYYADSVKGRFTISRDNAKNTVYLHMNSLKPEDTAVYYCAVAAGIPQRRYYYWGHGTQVTVSS,high polyreactivity
3,QVQLVESGGGLVQAGGSLRVSCDASGFTFFYNAMGRYRQAHGKERELVASISSVGRTNYADSVKGRFRISRDNAKNTVYLQMNSLTPEDTAVYFCAAYRAPATRRRGYYYWGLGTQVTVSS,high polyreactivity
4,QVQLVESGGGLVQAGGSLRVSWAACGSTFYGYGMGWYRQAPWKERELVAAITGSGDTTYYADSVKGRFTISRDNAKNTVYLQMNSLKPEDTAVYYCAADASSKLYEYWGQGTQVTVSS,low polyreactivity
5,QVQLVESGGGLVQAGGSLSLICAASGRILSGNAMVWYRQAPGKERELVAAITNAGITKYAVSVKGRFTISRDNAKNTVYLQMNSLKPEHTEVYYCASDRYAYKLYDYWGQGTQVTVSS,low polyreactivity
6,QVQLVESGGGLVQAGGSLSLICAASGRIYPKYAMGWYRQAPGKERELVAGITKRVGSTYYADSVKGRFTISRDNAKHTVYLQMTSLKPEDTAGYYCAKRWVSGPHGYWGQGTQVTVSS,low polyreactivity
7,QVQLVESGGGLVQAGGSLSLICAASGSTLATYTMGGYRQAPGKERELVAAISFGGSTYYADSVKGRYTISRDNAKNTVYLQMISLKPEDTAVYYCAVYGDSYWGAYYYSDGYWGQGTQVTVSS,low polyreactivity
8,QVQLVESGGGLVQAGGSLSLRFAASGFIFYRYAMGWYRQAPWKERELVAAITRSVTSTYYADSVKGRFTISRDNAKNTVYLQMNSLKPEDTAVYYCILRSRYDYYYWGQGTQVTVSS,high polyreactivity
9,QVQLVESGGGLVQAGGSLSLSCAAMGWYRQAPGKERELVATITWSGGSTYYADSVKGRFTISRDNAKNPVYLQMNSLKPEDTAVYYCNARATLLSPANTIRGYDYWGQGTQVTVSS,low polyreactivity
10,QVQLVESGGGLVQAGGSLSLSCAASGFIFHFNAMGWYIQAPGKEREVVAAISRTGGTTYYADSVKGRFTLSRDNAKNTVYLQMNSLKPEVTAVYYCAAYSTYGQHYDYWGQGTQVTVSS,high polyreactivity
11,QVQLVESGGGLVQAGGSLSLSCAASGFIFPRYTMGWYRQAPGKERELVAAMTSSGGTNYADSVKGRFTISRDNAKNTVYLQMNSLKPEDTAVYYCAARRRTQQGYGGGYWGQGTQVTVSS,high polyreactivity
12,QVQLVESGGGLVQAGGSLSLSCAASGFIFVPYAMGLSRQAPGKERELVARITWSGGRTYYADSVKGRFTISRDNAKNTVYLQLNSLKPEDTAVYYCNADVYGFDYWGQGTQVTVSS,high polyreactivity
13,QVQLVESGGGLVQAGGSLSLSCAASGFTLGYYAMGWYRQAPGKERELVAAITSGGGTNYADSVKGRFTISRDNAKNTVYLQMNSLKPEDTAVYYCAARARWIYGMYSWGQGTQVTVSS,low polyreactivity
14,QVQLVESGGGLVQAGGSLSLSCAASGGIFAANAMGWYRQAPGKERELVAAITRRGGSTTYADSVKGRFTISRDNAKNTVYLQMNRLKREDTAVYYCNTVYYRFYIELYFSSYDYWGQGTQVTVSS,high polyreactivity
15,QVQLVESGGGLVQAGGSLSLSCAASGITFGLYTLGWYRQAPGKERELVASISQSGGSTYYADSVKGRFTNSRDNAKNTVYLQMNSQKQEDTAVYYCNARRRFWDFSTRGYDSWGQGTQGTVSS,high polyreactivity
16,QVQLVESGGGLVQAGGSLSLSCAASGLTFKWNAMGWYRQAPGKEREFVAANTKRAGSTYYADSVKGRFTISRDNAKNTVYIQMNSLKPEDTAVYYCAADDGYFYARYDYWGQGTQVTVSS,low polyreactivity
